In PMC9159934:

Biological target: BsaXI specificity subunit, WT: TRD1-CR1-TRD2-CR2 (Bacillus stearothermophilus 25B (Geobacillus sp. 25B))
Assay: co-purification by chromatography + SDS-PAGE band densitometry; RM and S expressed separately as intein-CBD fusions, combined and purified together over chitin, DEAE, heparin, Source 15S, Source 15Q and gel filtration (Superdex 75); RM:S ratio estimated from molecular mass and band intensity on SDS-PAGE (Bio Rad gel imaging software)

Substance: BsaXI restriction-modification subunit (RM fusion) (enzyme)
- stoichiometry N: 2 RM per S
